# B1: rat Rho-dependent protein kinase ROCKII[1-543] (protein)
# chain: MSRPPPTGKMPGAPEAAAGDGAGAGRQRKLEALIRDPRSPINVESLLDGLNSLVLDLDFPALRKNKNIDNFLNRYEKIVKKIRGLQMKAEDYDVVKVIGRGAFGEVQLVRHKASQKVYAMKLLSKFEMIKRSDSAFFWEERDIMAFANSPWVVQLFCAFQDDRYLYMVMEYMPGGDLVNLMSNYDVPEKWAKFYTAEVVLALDAIHSMGLIHRDVKPDNMLLDKHGHLKLADFGTCMKMDETGMVHCDTAVGTPDYISPEVLKSQGGDGYYGRECDWWSVGVFLFEMLVGDTPFYADSLVGTYSKIMDHKNSLCFPEDTEISKHAKNLICAFLTDREVRLGRNGVEEIKSASFFKNDQWNWDNIRETAAPVVPELSSDIDSSNFDDIEDDKGDVETFPIPKAFVGNQLPFIGFTYFRENLLLSDSPPCRENDAIQTRKSEESQEIQKKLYALEEHLSSEVQAKEELEQKCKSINTRLEKTAKELEEEITFRKNVESTLRQLEREKALLQHKNAEYQRKADHEADKKRNLENDVNSLKDQLEDL
# B2: p70 ribosomal S6 kinase 1 (S6K1[T412E], lacking the C-terminal 104 residues) (protein)
# chain: MRRRRRRDGFYPAPDFRDREAEDMAGVFDIDLDQPEDAGSEDELEEGGQLNESMDHGGVGPYELGMEHCEKFEISETSVNRGPEKIRPECFELLRVLGKGGYGKVFQVRKVTGANTGKIFAMKVLKKAMIVRNAKDTAHTKAERNILEEVKHPFIVDLIYAFQTGGKLYLILEYLSGGELFMQLEREGIFMEDTACFYLAEISMALGHLHQKGIIYRDLKPENIMLNHQGHVKLTDFGLCKESIHDGTVTHTFCGTIEYMAPEILMRSGHNRAVDWWSLGALMYDMLTGAPPFTGENRKKTIDKILKCKLNLPPYLTQEARDLLKKLLKRNAASRLGAGPGDAGEVQAHPFFRHINWEELLARKVEPPFKPLLQSEEDVSQFDSKFTRQTPVDSPDDSTLSESANQVFLGFEYVAPSVLES
# B3: p38 regulated/activated kinase (PRAK) (protein)
# chain: MSEESDMDKAIKETSILEEYSINWTQKLGAGISGPVRVCVKKSTQERFALKILLDRPKARNEVRLHMMCATHPNIVQIIEVFANSVQFPHESSPRARLLIVMEMMEGGELFHRISQHRHFTEKQASQVTKQIALALRHCHLLNIAHRDLKPENLLFKDNSLDAPVKLCDFGFAKIDQGDLMTPQFTPYYVAPQVLEAQRRHQKEKSGIIPTSPTPYTYNKSCDLWSLGVIIYVMLCGYPPFYSKHHSRTIPKDMRRKIMTGSFEFPEEEWSQISEMAKDVVRKLLKVKPEERLTIEGVLDHPWLNSTEALDNVLPSAQLMMDKAVVAGIQQAHAEQLANMRIQDLKVSLKPLHSVNNPILRKRKLLGTKPKDSVYIHDHENGAEDSNVALEKLRDVIAQCILPQAGKGENEDEKLNEVMQEAWKYNRECKLLRDTLQSFSWNGRGFTDKVDRLKLAEIVKQVIEEQTTSHESQ
# B4: Checkpoint Kinase 1 (CHK1) (protein)
# chain: MAVPFVEDWDLVQTLGEGAYGEVQLAVNRVTEEAVAVKIVDMKRAVDCPENIKKEICINKMLNHENVVKFYGHRREGNIQYLFLEYCSGGELFDRIEPDIGMPEPDAQRFFHQLMAGVVYLHGIGITHRDIKPENLLLDERDNLKISDFGLATVFRYNNRERLLNKMCGTLPYVAPELLKRREFHAEPVDVWSCGIVLTAMLAGELPWDQPSDSCQEYSDWKEKKTYLNPWKKIDSAPLALLHKILVENPSARITIPDIKKDRWYNKPLKKGAKRPRVTSGGVSESPSGFSKHIQSNLDFSPVNSASSEENVKYSSSQPEPRTGLSLWDTSPSYIDKLVQGISFSQPTCPDHMLLNSQLLGTPGSSQNPWQRLVKRMTRFFTKLDADKSYQCLKETCEKLGYQWKKSCMNQVTISTTDRRNNKLIFKVNLLEMDDKILVDFRLSKGDGLEFKRHFLKIKGKLIDIVSSQKIWLPAT
# B5: cGMP-dependent protein kinase (PKG) (protein)
# chain: SELEEDFAKILMLKEERIKELEKRLSEKEEEIQELKRKLHKCQSVLPVPSTHIGPRTTRAQGISAEPQTYRSFHDLRQAFRKFTKSERSKDLIKEAILDNDFMKNLELSQIQEIVDCMYPVEYGKDSCIIKEGDVGSLVYVMEDGKVEVTKEGVKLCTMGPGKVFGELAILYNCTRTATVKTLVNVKLWAIDRQCFQTIMMRTGLIKHTEYMEFLKSVPTFQSLPEEILSKLADVLEETHYENGEYIIRQGARGDTFFIISKGKVNVTREDSPNEDPVFLRTLGKGDWFGEKALQGEDVRTANVIAAEAVTCLVIDRDSFKHLIGGLDDVSNKAYEDAEAKAKYEAEAAFFANLKLSDFNIIDTLGVGGFGRVELVQLKSEESKTFAMKILKKRHIVDTRQQEHIRSEKQIMQGAHSDFIVRLYRTFKDSKYLYMLMEACLGGELWTILRDRGSFEDSTTRFYTACVVEAFAYLHSKGIIYRDLKPENLILDHRGYAKLVDFGFAKKIGFGKKTWTFCGTPEYVAPEIILNKGHDISADYWSLGILMYELLTGSPPFSGPDPMKTYNIILRGIDMIEFPKKIAKNAANLIKKLCRDNPSERLGNLKNGVKDIQKHKWFEGFNWEGLRKGTLTPPIIPSVASPTDTSNFDSFPEDNDEPPPDDNSGWDIDF
# B6: serum and glucocorticoid-induced kinase 1 (SGK1[S422D] and lacking the N-terminal 59 residues) (protein)
# chain: ISQPQEPELMNANPSPPPSPSQQINLGPSSNPHAKPSDFHFLKVIGKGSFGKVLLARHKAEEVFYAVKVLQKKAILKKKEEKHIMSERNVLLKNVKHPFLVGLHFSFQTADKLYFVLDYINGGELFYHLQRERCFLEPRARFYAAEIASALGYLHSLNIVYRDLKPENILLDSQGHIVLTDFGLCKENIEHNSTTSTFCGTPEYLAPEVLHKQPYDRTVDWWCLGAVLYEMLYGLPPFYSRNTAEMYDNILNKPLQLKPNITNSARHLLEGLLQKDRTKRLGAKDDFMEIKSHVFFSLINWDDLINKKITPPFNPNVSGPNDLRHFDPEFTEEPVPNSIGKSPDSVLVTASVKEAAEAFLGFDYAPPTDSFL
# B7: AMP-activated protein kinase (AMPK) (protein)
# chain: MAEKQKHDGRVKIGHYVLGDTLGVGTFGKVKIGEHQLTGHKVAVKILNRQKIRSLDVVGKIKREIQNLKLFRHPHIIKLYQVISTPTDFFMVMEYVSGGELFDYICKHGRVEEVEARRLFQQILSAVDYCHRHMVVHRDLKPENVLLDAQMNAKIADFGLSNMMSDGEFLRTSCGSPNYAAPEVISGRLYAGPEVDIWSCGVILYALLCGTLPFDDEHVPTLFKKIRGGVFYIPEYLNRSIATLLMHMLQVDPLKRATIKDIREHEWFKQDLPSYLFPEDPSYDANVIDDEAVKEVCEKFECTESEVMNSLYSGDPQDQLAVAYHLIIDNRRIMNQASEFYLASSPPTGSFMDDMAMHIPPGLKPHPERMPPLIADSPKARCPLDALNTTKPKSLAVKKAKWHLGIRSQSKPYDIMAEVYRAMKQLDFEWKVVNAYHLRVRRKNPVTGNYVKMSLQLYLVDNRSYLLDFKSIDDEVVEQRSGSSTPQRSCSAAGLHRPRSSVDSSTAENHSLSGSLTGSLTGSTLSSASPRLGSHTMDFFEMCASLITALAR
# B8: protein kinase B alpha (PKBα) (protein)
# chain: MDFRSGSPSDNSGAEEMEVSLAKPKHRVTMNEFEYLKLLGKGTFGKVILVKEKATGRYYAMKILKKEVIVAKDEVAHTLTENRVLQNSRHPFLTALKYSFQTHDRLCFVMEYANGGELFFHLSRERVFSEDRARFYGAEIVSALDYLHSEKNVVYRDLKLENLMLDKDGHIKITDFGLCKEGIKDGATMKTFCGTPEYLAPEVLEDNDYGRAVDWWGLGVVMYEMMCGRLPFYNQDHEKLFELILMEEIRFPRTLGPEAKSLLSGLLKKDPKQRLGGGSEDAKEIMQHRFFAGIVWQHVYEKKLSPPFKPQVTSETDTRYFDEEFTAQMITITPPDQDDSMECVDSERRPHFPQFSYSASGTA
# B9: MAPKAP-K3 (protein)
# chain: MDGETAEEQGGPVPPPVAPGGPGLGGAPGGRREPKKYAVTDDYQLSKQVLGLGVNGKVLECFHRRTGQKCALKLLYDSPKARQEVDHHWQASGGPHIVCILDVYENMHHGKRCLLIIMECMEGGELFSRIQERGDQAFTEREAAEIMRDIGTAIQFLHSHNIAHRDVKPENLLYTSKEKDAVLKLTDFGFAKETTQNALQTPCYTPYYVAPEVLGPEKYDKSCDMWSLGVIMYILLCGFPPFYSNTGQAISPGMKRRIRLGQYGFPNPEWSEVSEDAKQLIRLLLKTDPTERLTITQFMNHPWINQSMVVPQTPLHTARVLQEDKDHWDEVKEEMTSALATMRVDYDQVKIKDLKTSNNRLLNKRRKKQAGSSSASQGCNNQ
# Experiments:
# [1] = molecular target: T1, standard peptide substrate KEAKEKRQEQIAKRRRLSSLRASTSKSGGSQK
# T1 chain: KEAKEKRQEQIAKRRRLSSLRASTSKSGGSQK
# [2] = molecular target: T2, generic peptide substrate RRRLSFAEPG
# T2 chain: RRRLSFAEPG
# [3] = molecular target: T3, generic peptide substrate KKLNRTLSFAEPG
# T3 chain: KKLNRTLSFAEPG
# [4] = molecular target: T4, standard peptide substrate LRRASLG
# T4 chain: LRRASLG
# [5] = molecular target: T5, generic peptide substrate RARTLSFAEPG
# T5 chain: RARTLSFAEPG
# [6] = molecular target: T6, standard peptide substrate KKLRRTLSVA
# T6 chain: KKLRRTLSVA
# [7] = molecular target: T7, standard peptide substrate KKKVSRSGLYRSPSMPENLNRPR
# T7 chain: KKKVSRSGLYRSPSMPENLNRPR
# [8] = molecular target: T8, standard peptide substrate GRPRTSSFAEG
# T8 chain: GRPRTSSFAEG
# [9] = molecular target: T9, standard peptide substrate HMRSAMSGLHLVKRR
# T9 chain: HMRSAMSGLHLVKRR
# [10] = molecular target: T10, standard peptide substrate KKLNRTLSVA
# T10 chain: KKLNRTLSVA
protein,measurement,setting,value
B1,Km,[1],5 µM
same,Km,[2],> 100 µM
B2,Km,[3],6 µM
same,Km,[4],8 µM
B3,Km,[5],40 µM
same,Km,[6],> 100 µM
B4,Km,[5],5 µM
same,Km,[7],5 µM
B5,Km,[1],5 µM
same,Km,[2],50 µM
B6,Km,[8],4 µM
same,Km,[3],4 µM
B7,Km,[9],80 µM
same,Km,[5],75 µM
B8,Km,[8],4 µM
same,Km,[3],2 µM
B9,Km,[5],30 µM
same,Km,[10],18 µM

# From patent US7727950
